Measurements published in US20180214568A1.
Each block holds one binder with its values, some of them ahead of it.

How the values were obtained:
[1] = target: CD56 on the surface of human neuroblastoma cells (human) (UniProt P13591); test: cell-based or functional assay
[2] = target: human CD56 whole ectodomain (residues 20-720) (human) (UniProt P13591); test: SPR (BIACORE X100), CD56 ectodomain immobilized, Fab in flow, 1:1 model
[3] = target: human CD56 whole ectodomain (residues 20-720) (human) (UniProt P13591); test: BIACORE, Fab on immobilised CD56 ectodomain
[4] = target: CD56 on the surface of human neuroblastoma cells (human) (UniProt P13591)

- percent reduction in CD56 cell surface expression, Kelly cells, 50 nM m906 overnight [1]: 93%
- percent reduction in CD56 cell surface expression, SKNAS cells, 50 nM m906 overnight [1]: 21%
- percent reduction in CD56 cell surface expression, other neuroblastoma cell lines, 50 nM m906 overnight [1]: > 60%
B1: m906 IgG1 (antibody, V domains shown)
VH: EVQLVQSGAEVKKPGSSVKVSCKASGGTFTGYYMHWVRQAPGQGLEWMGWINPNSGGTNYAQKFQGRVTMTRDTSISTAYMELSRLRSDDTAVYYCARDLSSGYSGYFDYWGQGTLVTVSS
VL: DVVMTQSPLSLPVTPGEPASISCRSSQSLLHSNGYNFLDWYLQKPGQSPQLLIYLGSNRASGVPDRFSGSGSGTDFTLKISRVEADDVGVYYCMQSLQTPWTFGHGTKVEIKR

- Kd [2]: 4.5 nM
- Kd [3]: 4.49 nM
B2: m906 Fab (Fab, V domains shown)
VH: B1 VH
VL: B1 VL

B3: m906PBD (antibody, V domains shown)
VH: B1 VH
VL: B1 VL
modifications: PBD-MC conjugated to cysteine residues of the reduced IgG (sites not given); PBD-MC (pyrrolobenzodiazepine dimer with maleimide) conjugated to cysteine residues of the reduced IgG
- IC50 (read off the curve), % survival of CHP134 cells, ADC alone [4]: 0.01 nM
- killing of IMR5 cells (cell viability, 4 days) [1]: 5 pM
